Data: article PMC11405016

Molecular target: Prominin 1 (Prom1) W795R, human S1 isoform, C-terminally Strep-tagged (human)
Assay: co-IP; EVs from co-transfected Expi293 cells, purified and solubilised with 1% DDM (25 mM HEPES-NaOH pH 7.8, 150 mM NaCl, 5 mM CaCl2); Prom1-Strep captured on StrepTactinXT 4Flow resin, 1 hr at 4°C; co-purified mNeonGreen or mScarlet fluorescence on the beads measured by montaged epifluorescence imaging, normalised to mTagBFP2-Strep on the resin

Prominin 1 (Prom1) W795R, human S1 isoform, C-terminally Strep-tagged (natural protein)
co-purified mScarlet fluorescence relative to WT Prom1 (% of WT Prom1): 60
